The results in this text go back to patent US20230213527A1, “COMPOSITIONS AND METHODS FOR POLYPEPTIDE ANALYSIS” (Quantum-Si Incorporated, priority 2021, published 2023).

Assay [1] deals with … (SEQ ID NO: 823), state with N-terminal leucine (…). Put plainly: single-molecule on-chip sequencing with PS691, PS610 and PS961.
Assay [2] deals with RLp… (SEQ ID NO: 824), state with N-terminal leucine (Lp…). The description is as above.

B1: PS961 (designed binder)
chain: MPTAASATESAIEDTPAPARPEVDGRTKPKRQPRYHVVLWDDDDHTYQYVVVMLRSLFGHPPSRGYRMAKEMDTQGRVIVLTTTREHAELKRDQIHAFGRDRLLARSKGSMKASIEAEE
In the case of B1, the RS mean PD was found to be 2.45 s in assay [1] and 3.4 s in assay [2].
